In the assay the target is Stat1α (human). Nature of the assay: co-immunoprecipitation with anti-FLAG M2 from COS cells with or without EGF, blot with Stat1 antiserum.

Take FLAG-tagged Stat3: the amount of Stat1 coprecipitated, treated cells against untreated cells came out at 5 fold.

The values above are taken from US5716622.
